Experimental data published in PMC7319049 (Nature, 2020).

Target: Snf2 (S. cerevisiae, UniProt P22082 1-1703)
Assay: cryo-EM structure

Snf2, sequence (P22082 whole entry): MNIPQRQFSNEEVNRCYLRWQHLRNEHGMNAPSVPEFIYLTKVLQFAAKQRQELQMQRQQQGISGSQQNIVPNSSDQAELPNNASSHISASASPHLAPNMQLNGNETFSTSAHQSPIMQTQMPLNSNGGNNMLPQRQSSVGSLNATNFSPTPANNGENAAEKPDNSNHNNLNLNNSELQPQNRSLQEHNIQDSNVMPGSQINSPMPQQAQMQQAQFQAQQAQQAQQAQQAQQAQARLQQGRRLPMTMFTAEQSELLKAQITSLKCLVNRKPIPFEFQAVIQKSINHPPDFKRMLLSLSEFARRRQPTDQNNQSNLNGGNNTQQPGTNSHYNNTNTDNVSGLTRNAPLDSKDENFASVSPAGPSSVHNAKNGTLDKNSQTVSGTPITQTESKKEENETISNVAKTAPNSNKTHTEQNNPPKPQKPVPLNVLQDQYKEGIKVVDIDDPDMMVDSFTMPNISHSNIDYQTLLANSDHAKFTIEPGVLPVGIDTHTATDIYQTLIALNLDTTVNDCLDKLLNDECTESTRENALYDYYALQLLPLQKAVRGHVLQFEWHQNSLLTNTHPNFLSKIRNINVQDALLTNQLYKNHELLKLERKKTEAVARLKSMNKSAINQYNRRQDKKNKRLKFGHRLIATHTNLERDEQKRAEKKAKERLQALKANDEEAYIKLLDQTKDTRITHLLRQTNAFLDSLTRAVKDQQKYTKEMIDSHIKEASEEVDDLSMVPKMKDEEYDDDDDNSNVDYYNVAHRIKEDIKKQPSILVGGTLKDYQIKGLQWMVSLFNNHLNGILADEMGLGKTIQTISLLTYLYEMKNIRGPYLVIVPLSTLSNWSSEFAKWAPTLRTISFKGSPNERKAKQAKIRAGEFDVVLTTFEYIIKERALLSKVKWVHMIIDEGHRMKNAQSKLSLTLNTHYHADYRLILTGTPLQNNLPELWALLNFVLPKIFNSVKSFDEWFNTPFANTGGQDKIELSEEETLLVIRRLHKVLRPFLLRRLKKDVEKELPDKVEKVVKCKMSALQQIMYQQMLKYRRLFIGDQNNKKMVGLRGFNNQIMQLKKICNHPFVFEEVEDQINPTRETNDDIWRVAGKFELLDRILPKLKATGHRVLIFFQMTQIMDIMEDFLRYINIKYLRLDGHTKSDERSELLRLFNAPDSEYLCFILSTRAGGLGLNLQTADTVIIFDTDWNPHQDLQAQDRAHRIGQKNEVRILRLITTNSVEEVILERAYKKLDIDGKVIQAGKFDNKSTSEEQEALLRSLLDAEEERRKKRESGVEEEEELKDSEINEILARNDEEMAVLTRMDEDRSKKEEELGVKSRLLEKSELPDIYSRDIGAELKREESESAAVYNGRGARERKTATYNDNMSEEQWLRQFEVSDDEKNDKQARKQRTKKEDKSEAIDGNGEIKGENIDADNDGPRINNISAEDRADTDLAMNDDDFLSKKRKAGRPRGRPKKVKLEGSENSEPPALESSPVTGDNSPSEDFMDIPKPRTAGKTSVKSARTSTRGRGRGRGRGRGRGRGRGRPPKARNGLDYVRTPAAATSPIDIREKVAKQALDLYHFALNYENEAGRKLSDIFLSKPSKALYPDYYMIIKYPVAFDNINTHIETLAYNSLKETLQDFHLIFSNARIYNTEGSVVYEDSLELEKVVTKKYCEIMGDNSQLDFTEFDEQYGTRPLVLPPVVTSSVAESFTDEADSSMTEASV

binding result | Binder
binds | Arp7 (natural protein) MTLNRKCVVIHNGSHRTVAGFSNVELPQCIIPSSYIKRTDEGGEAEFIFGTYNMIDAAAEKRNGDEVYTLVDSQGLPYNWDALEMQWRYLYDTQLKVSPEELPLVITMPATNGKPDMAILERYYELAFDKLNVPVFQIVIEPLAIALSMGKSSAFVIDIGASGCNVTPIIDGIVVKNAVVRSKFGGDFLDFQVHERLAPLIKEENDMENMADEQKRSTDVWYEASTWIQQFKSTMLQVSEKDLFELERYYKEQADIYAKQQEQLKQMDQQLQYTALTGSPNNPLVQKKNFLFKPLNKTLTLDLKECYQFAEYLFKPQLISDKFSPEDGLGPLMAKSVKKAGASINSMKANTSTNPNGLGTSHINTNVGDNNSTASSSNISPEQVYSLLLTNVIITGSTSLIEGMEQRIIKELSIRFPQYKLTTFANQVMMDRKIQGWLGALTMANLPSWSLGKWYSKEDYETLKRDRKQSQATNATN
binds | Swi1 (natural protein) MDFFNLNNNNNNNNTTTTTTTTNNNNTNNNNTNNNNNPANNTNNNNSTGHSSNTNNNTNNNNTNTGASGVDDFQNFFDPKPFDQNLDSNNNNSNSNNNDNNNSNTVASSTNFTSPTAVVNNAAPANVTGGKAANFIQNQSPQFNSPYDSNNSNTNLNSLSPQAILAKNSIIDSSNLPLQAQQQLYGGNNNNNSTGIANDNVITPHFITNVQSISQNSSSSTPNTNSNSTPNANQQFLPFNNSASNNGNLTSNQLISNYAASNSMDRSSSASNEFVPNTSDNNNNSNNHNMRNNSNNKTSNNNNVTAVPAATPANTNNSTSNANTVFSERAAMFAALQQKQQQRFQALQQQQQQQQNQQQQNQQPQQQQQQQQNPKFLQSQRQQQQRSILQSLNPALQEKISTELNNKQYELFMKSLIENCKKRNMPLQSIPEIGNRKINLFYLYMLVQKFGGADQVTRTQQWSMVAQRLQISDYQQLESIYFRILLPYERHMISQEGIKETQAKRIFLQQFLQELLKKVQQQQQAAALANANNNINSASSAPTPAAPGASVPATAAPGTEAGIVPVSANTPKSLNSNININVNNNNIGQQQVKKPRKQRVKKKTKKELELERKEREDFQKRQQKLLEDQQRQQKLLLETKLRQQYEIELKKLPKVYKRSIVRNYKPLINRLKHYNGYDINYISKIGEKIDSNKPIFLFAPELGAINLHALSMSLQSKNLGEINTALNTLLVTSADSNLKISLVKYPELLDSLAILGMNLLSNLSQNVVPYHRNTSDYYYEDAGSNQYYVTQHDKMVDKIFEKVNNNATLTPNDSNDEKVTILVDSLTGNQLPTPTPTEMEPDLDTECFISMQSTSPAVKQWDLLPEPIRFLPNQFPLKIHRTPYLTSLKKIKDEIDDPFTKINTRGAEDPKVLINDQLSTISMILRNISFSDNNSRIMSRNFYLKRFISDLLWLVLIHPENFTCNRKILNFKKDLVIVLSNISHLLEIASSIDCLLILILVISFGQPKLNPMASSSSFGSESLTFNEFQLQWGKYQTFGVDILAKLFSLEKPNLNYFKSILLNKNTGNNLYDRNSNNNHKDKKLLRRLLNLYNDNNKNNNNRHNLLNDVVSFLFSAIPLQQVLSQSADPSLLIDQFSPVISQSLTSILVIVQKILPLSNEVFEISENNSDSNSNNNGNKDSSFNFNKNLPFVWLSSEENIGSGLLKLSEIILNINNSTSKNTLLQQQNYSKVLLPSINISCVQLIKCLVEKSICFENCLNNDPEILKKIASIPNLFPTDLEIFQLFTNPSVDIQIINQYQLLYNLKNDILTNLE
binds | Rtt102 (natural protein) MDPQTLITKANKVSYYGNPTSKESWRYDWYQPSKVSSNVQQPQQQLGDMENNLEKYPFRYKTWLRNQEDEKNLQRESCEDILDLKEFDRRILKKSLMTSHTKGDTSKATGAPSANQGDEALSVDDIRGAVGNSEAIPGLSAGVNNDNTKESKDVKMN
binds | Arp9 (natural protein) MAPFRQDSILIIYPRSQTTLVQFGLNEETFTVPELEIPTQIYRTTRQDGSYTYHSTNKDNKAELIKPIQNGEIIDISAFTQFLRLIFVSILSDRANKNQDAFEAELSNIPLLLITHHSWSQSDLEIITQYVFESLEINNLIQLPASLAATYSMISLQNCCIIDVGTHHTDIIPIVDYAQLDHLVSSIPMGGQSINDSLKKLLPQWDDDQIESLKKSPIFEVLSDDAKKLSSFDFGNENEDEDEGTLNVAEIITSGRDTREVLEERERGQKVKNVKNSDLEFNTFWDEKGNEIKVGKQRFQGCNNLIKNISNRVGLTLDNIDDINKAKAVWENIIIVGGTTSISGFKEALLGQLLKDHLIIEPEEEKSKREEEAKSVLPAATKKKSKFMTNSTAFVPTIEYVQCPTVIKLAKYPDYFPEWKKSGYSEIIFLGAQIVSKQIFTHPKDTFYITREKYNMKGPAALWDVQF
